Measured values taken from patent publication US20210340208A1 (ANWITA BIOSCIENCES, published 2021).

Tests used:
[1] = molecular target: T1, IL-2Rα, β, and γ chains on preactivated human CD3 T-cells (human, UniProt P01589 22-272; P14784 27-551; P31785 23-369); test: cell-based or functional assay
T1 sequence (looked up) 1: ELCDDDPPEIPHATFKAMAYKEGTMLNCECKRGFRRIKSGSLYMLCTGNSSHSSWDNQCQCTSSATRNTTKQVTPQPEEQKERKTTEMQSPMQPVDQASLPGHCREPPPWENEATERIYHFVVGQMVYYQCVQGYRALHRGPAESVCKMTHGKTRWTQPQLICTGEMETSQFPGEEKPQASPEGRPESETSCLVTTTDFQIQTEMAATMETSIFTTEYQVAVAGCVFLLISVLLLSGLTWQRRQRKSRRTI
T1 sequence (looked up) 2: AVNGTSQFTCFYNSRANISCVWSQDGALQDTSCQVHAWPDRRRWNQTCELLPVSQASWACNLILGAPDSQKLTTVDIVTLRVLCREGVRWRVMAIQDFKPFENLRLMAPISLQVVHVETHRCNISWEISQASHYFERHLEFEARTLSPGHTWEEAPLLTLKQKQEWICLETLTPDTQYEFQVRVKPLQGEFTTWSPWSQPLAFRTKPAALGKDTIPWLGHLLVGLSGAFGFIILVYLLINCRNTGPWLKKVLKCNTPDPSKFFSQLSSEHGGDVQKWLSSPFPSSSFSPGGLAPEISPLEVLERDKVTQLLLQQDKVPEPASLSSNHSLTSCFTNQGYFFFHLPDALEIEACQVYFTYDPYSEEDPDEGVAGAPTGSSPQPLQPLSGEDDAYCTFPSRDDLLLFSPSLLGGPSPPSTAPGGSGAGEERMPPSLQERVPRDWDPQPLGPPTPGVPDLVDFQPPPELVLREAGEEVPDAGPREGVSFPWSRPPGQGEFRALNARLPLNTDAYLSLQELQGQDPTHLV
T1 sequence (looked up) 3: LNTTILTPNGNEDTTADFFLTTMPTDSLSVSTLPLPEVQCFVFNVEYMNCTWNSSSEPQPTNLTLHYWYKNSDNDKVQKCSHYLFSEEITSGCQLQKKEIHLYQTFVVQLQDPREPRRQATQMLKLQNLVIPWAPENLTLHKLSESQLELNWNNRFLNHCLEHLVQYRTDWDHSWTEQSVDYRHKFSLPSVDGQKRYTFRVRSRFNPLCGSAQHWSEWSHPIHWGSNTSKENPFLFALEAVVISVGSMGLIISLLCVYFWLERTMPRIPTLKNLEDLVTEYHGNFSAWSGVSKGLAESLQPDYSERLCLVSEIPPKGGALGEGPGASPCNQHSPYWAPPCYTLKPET

IL-2Rα-Fc fusion protein = molecular target: T2, IL-2Rα-Fc fusion protein (human, UniProt P01589 22-240); test: BLI (Octet RED96), IL-2Rα-Fc on AHC biosensor
T2 construct: also called human IL-2Rα (CD25); CD25; not shown: Fc part and any linker are not described; captured on an anti-human IgG Fc sensor
T2 sequence: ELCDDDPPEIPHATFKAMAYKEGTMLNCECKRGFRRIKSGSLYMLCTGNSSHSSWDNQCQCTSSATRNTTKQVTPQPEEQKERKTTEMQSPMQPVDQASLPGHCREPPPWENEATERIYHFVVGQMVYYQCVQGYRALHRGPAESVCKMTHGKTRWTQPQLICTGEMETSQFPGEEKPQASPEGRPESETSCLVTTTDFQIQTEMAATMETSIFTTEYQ
Protocol: OCTET® RED96 was used to characterize the interactions of a wild-type hIL-2 and hIL-2 muteins with a human IL-2Rα (CD25). Briefly, an IL-2Rα-Fc fusion protein was loaded onto an anti-human IgG Fc capture (AHC) biosensor. The biosensor was then dipped into a solution containing a wild-type hIL-2 (WT IL-2) or an IL-2 mutein at various concentrations. Primary experimental data was analyzed with global fitting to determine a binding affinity (Kd).

B1: hIL-2-anti-HSA A37 (ligand)
chain: APTSSSTKKTQLQLEHLLLDLQMILNGINNYENPKLTRMLTAKFYMPKKATELKHLQCLEEELKPLEEVLNLAQSKNFHLRPRDLISNINVIVLELKGSETTFMCEYADETATIVEFLNRWITFSQSIISTLTGSGGSGGSGGSGEVQLVESGGGLVQPGGSLRLSCAASGSTWSINTLAWYRQAPGKQRDLVARISSGGSTYYADSVKGRFTISRDNSKNTLYLQMNSLRAEDTAVYYCYAQSTWYPPSWGQGTLVTVSS
notes: fused to anti-HSA VHH; also called IL2 mutein (K32E, F42A, C125S)
EC50 of STAT5 phosphorylation (phospho-STAT5 Tyr694 HTRF) [1]: 0.92 nM
binding result (IL-2Rα-Fc fusion protein): no binding
